Molecular target: FITC-sCT(22–32) (salmon, FITC label)
Assay: fluorescence polarisation

Kd: 280 nM
pKD: 6.56
B1: RAMP1-CTR.34–141 WT (tethered RAMP1-CTR ECD fusion, AMY1 receptor ECD) (receptor)
chain: TTACQEANYGALLRELCLTQFQVDMEAVGETLWCDWGRTIRSYRELADCTWHMAEKLGCFWPNAEVDRFFLAVHGRYFRSCPISGRAVIEPKPFLYVVGRKKMMDAQYKCYDRMQQLPAYQGEGPYCNRTWDGWLCWDDTPAGVLSYQFCPDYFPDFDPSEKVTKYCDEKGVWFKHPENNRTWSNYTMCNAFTPEK
modifications: N-glycosylated (HEK293S GnTI−, enzyme treatment: none)
